Test results from IntAct's records for PubMed 29415205.

B1: Glycine--tRNA ligase (Homo sapiens), P41250 (parent)
chain: MPSPRPVLLRGARAALLLLLPPRLLARPSLLLRRSLSAASCPPISLPAAASRSSMDGAGAEEVLAPLRLAVRQQGDLVRKLKEDKAPQVDVDKAVAELKARKRVLEAKELALQPKDDIVDRAKMEDTLKRRFFYDQAFAIYGGVSGLYDFGPVGCALKNNIIQTWRQHFIQEEQILEIDCTMLTPEPVLKTSGHVDKFADFMVKDVKNGECFRADHLLKAHLQKLMSDKKCSVEKKSEMESVLAQLDNYGQQELADLFVNYNVKSPITGNDLSPPVSFNLMFKTFIGPGGNMPGYLRPETAQGIFLNFKRLLEFNQGKLPFAAAQIGNSFRNEISPRSGLIRVREFTMAEIEHFVDPSEKDHPKFQNVADLHLYLYSAKAQVSGQSARKMRLGDAVEQGVINNTVLGYFIGRIYLYLTKVGISPDKLRFRQHMENEMAHYACDCWDAESKTSYGWIEIVGCADRSCYDLSCHARATKVPLVAEKPLKEPKTVNVVQFEPSKGAIGKAYKKDAKLVMEYLAICDECYITEMEMLLNEKGEFTIETEGKTFQLTKDMINVKRFQKTLYVEEVVPNVIEPSFGLGRIMYTVFEHTFHVREGDEQRTFFSFPAVVAPFKCSVLPLSQNQEFMPFVKELSEALTRHGVSHKVDDSSGSIGRRYARTDEIGVAFGVTIDFDTVNKTPHTATLRDRDSMRQIRAEISELPSIVQDLANGNITWADVEARYPLFEGQETGKKETIEE

Variants of: B1
Conditions: with hdac6_human HDAC6, Q9UBN7
hdac6_human HDAC6, Q9UBN7, sequence (Q9UBN7 whole entry): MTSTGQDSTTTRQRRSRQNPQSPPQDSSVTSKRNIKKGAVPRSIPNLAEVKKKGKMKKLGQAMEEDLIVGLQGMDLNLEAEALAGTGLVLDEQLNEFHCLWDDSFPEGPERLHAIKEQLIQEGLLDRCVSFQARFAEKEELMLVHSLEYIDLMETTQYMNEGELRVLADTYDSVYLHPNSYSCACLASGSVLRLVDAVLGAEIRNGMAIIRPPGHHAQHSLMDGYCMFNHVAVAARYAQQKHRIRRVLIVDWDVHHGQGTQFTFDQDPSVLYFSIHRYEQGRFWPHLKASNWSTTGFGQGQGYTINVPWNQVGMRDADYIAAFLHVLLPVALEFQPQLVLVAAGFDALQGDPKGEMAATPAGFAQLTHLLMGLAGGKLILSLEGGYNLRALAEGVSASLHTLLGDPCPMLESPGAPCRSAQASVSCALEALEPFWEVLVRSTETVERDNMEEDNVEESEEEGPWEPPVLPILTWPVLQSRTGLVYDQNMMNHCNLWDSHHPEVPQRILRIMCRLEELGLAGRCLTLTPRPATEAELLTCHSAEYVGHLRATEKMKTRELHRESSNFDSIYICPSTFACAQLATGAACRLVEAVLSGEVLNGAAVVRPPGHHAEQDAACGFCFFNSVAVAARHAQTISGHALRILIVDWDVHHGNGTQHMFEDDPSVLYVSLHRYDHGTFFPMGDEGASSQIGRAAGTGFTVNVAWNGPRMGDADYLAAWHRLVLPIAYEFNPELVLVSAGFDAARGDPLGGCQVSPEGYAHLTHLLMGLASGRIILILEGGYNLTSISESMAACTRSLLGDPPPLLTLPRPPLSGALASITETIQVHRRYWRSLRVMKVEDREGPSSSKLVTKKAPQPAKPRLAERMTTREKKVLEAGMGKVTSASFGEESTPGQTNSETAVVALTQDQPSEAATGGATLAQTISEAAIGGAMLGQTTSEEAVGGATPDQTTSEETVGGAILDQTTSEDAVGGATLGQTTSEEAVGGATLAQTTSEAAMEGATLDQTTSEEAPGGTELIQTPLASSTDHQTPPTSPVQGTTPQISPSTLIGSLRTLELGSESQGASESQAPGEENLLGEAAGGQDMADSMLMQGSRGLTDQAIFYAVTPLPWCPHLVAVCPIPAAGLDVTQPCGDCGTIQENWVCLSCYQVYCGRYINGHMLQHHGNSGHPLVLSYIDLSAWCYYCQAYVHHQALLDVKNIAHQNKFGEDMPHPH

Row | Variant | effect of a mutation on the interaction
1 | C211R | with no effect
